Source: patent US12006343B2, “C4BP-based compounds for treating immunological diseases” (FUNDACIO INSTITUT D'INVESTIGACIO BIOMEDICA DE BELLVITGE …, priority 2017, dated 2024)
“Also recorded” adds a separate entry of the source.

B1: C4BP(β−): plasma-purified C4BP minor isoform lacking beta chain; C4BPd3 is the CAIA group given 50 μg sc at days 3 and 5 (protein, UniProt P04003 49-597, looked up)
C4b-binding protein alpha …: NCGPPPTLSFAAPMDITLTETRFKTGTTLKYTCLPGYVRSHSTQTLTCNSDGEWVYNTFCIYKRCRHPGELRNGQVEIKTDLSFGSQIEFSCSEGFFLIGSTTSRCEVQDRGVGWSHPLPQCEIVKCKPPPDIRNGRHSGEENFYAYGFSVTYSCDPRFSLLGHASISCTVENETIGVWRPSPPTCEKITCRKPDVSHGEMVSGFGPIYNYKDTIVFKCQKGFVLRGSSVIHCDADSKWNPSPPACEPNSCINLPDIPHASWETYPRPTKEDVYVVGTVLRYRCHPGYKPTTDEPTTVICQKNLRWTPYQGCEALCCPEPKLNNGEITQHRKSRPANHCVYFYGDEISFSCHETSRFSAICQGDGTWSPRTPSCGDICNFPPKIAHGHYKQSSSYSFFKEEIIYECDKGYILVGQAKLSCSYSHWSAPAPQCKALCRKPELVNGRLSVDKDQYVEPENVTIQCDSGYGVVGPQSITCSGNRTWYPEVPKCEWETPEGCEQVLTGKRLMQCLPNPEDVKMALEVYKLSLEIEQLELQRDSARQSTLDKEL
modifications: alpha-chain-only isoform, plasma-purified

Experiments:
[1] = test system: NZBWF1 mice; details: CYP 50 mg/kg IP every 10 days; Alperovich et al. 2007; cited from earlier work
[2] = test system: lupus-prone NZBWF1 mice; assay: Renal function (24 h proteinuria) in spontaneous SLE mouse model NZBWF1; format: in vivo; details: CYP 50 mg/kg IP every 10 days, up to week 37
Experimental: Mice, Study Design and Follow Up
NZB/NZW F1 or NZBWF1/J (Charles-River), NZB/NZW F1 (Jackson, code 100008) are a hybrid cross between NZB/B1NJ (Jackson, code 000684) Female x NZW/LacJ (Jackson, code 001058) Male. NZBWF1/J mice develop an autoimmune disease resembling human systemic lupus erythematosus. The inventors used 58 females (30-35 g/each) aged 15 weeks for the study (4-5 animals per cage). The animals were maintained under standard laboratory conditions, at 20-24° C. and 40-70% relative humidity, with 12-hour fluorescent light/12-hour dark cycle. They were feed standard diet and tap water ad libitum. […]
Dose Selection and Administration.
The selection of the C4BP(β−) dose for in vivo administration was based in previous studies employing complement-related proteins in immune-inflammatory pathologies. Blom et al. (Blom et al. 2009. Ann. Rheum. Dis., 68:136-42) used the C4BP isoform lacking β chain in experimental collagen-induced arthritis (CIA) and collagen antibody-induced arthritis (CAIA) mice to investigate the influence of complement activity in the treatment of rheumatoid arthritis. These authors administered intraperitoneally C4BP (2 mg/mouse) using a multiple dose-regimen once every two days in preventive and therapeutic experiments. Thus, in the current study, C4BP(β−) was administered both intraperitoneally (IP) and subcutaneously (SC) into NZBWF1 mice for three months (between six and nine months of age).
Alperovich et al (Alperovich et al. 2007. Lupus, 16:18-24) administered cyclophosphamide (CYP) to NZBWF1 mice at 50 mg/kg IP every 10 days.
(§1) Both IP and SC administrations for C4BP(β−), CYP and PBS (150 μl/each) were performed with a 25-gauge needle during 30 s, after rinsing the skin with 70% ethanol.
(§2) The detailed administration schedule was as follows (Table 5):
Body weight was determined twice monthly from the beginning to the end of follow-up. Mice were placed in metabolic cages to collect 24 h urine specimens before the onset of treatment and monthly thereafter. Blood was obtained from the tail vein at monthly intervals.
Renal Function Analysis: Proteinuria
24 h urinary protein was determined by pyrogallol red (Olympum Autoanalyzer AU400, Hamburg, Germany) in the Veterinary Clinical Biochemistry Laboratory from Universitat Autonoma de Barcelona.
(§3) One-way analysis of variance (ANOVA) with post hoc tests was performed to compare proteinuria throughout the follow up. Survival data were analyzed using Kaplan-Meier curves and long-rank test. P value<0.05 was considered significant. Data are expressed as mean±SEM.

[3] = test system: lupus-prone NZBWF1 mice; assay: Kaplan-Meier survival in spontaneous SLE mouse model NZBWF1; format: in vivo; details: CYP 50 mg/kg IP once every 10 days
Experimental: NZBWF1/J mice develop an autoimmune disease resembling human systemic lupus erythematosus. […] The animals were maintained under standard laboratory conditions, at 20-24° C. and 40-70% relative humidity, with 12-hour fluorescent light/12-hour dark cycle. They were feed standard diet and tap water ad libitum.
as §1, §2, §3

[4] = test system: NZBWF1 mice; format: in vivo, mouse; details: treatment weeks 24-36
Experimental: The animals were observed daily throughout the experimental period to check out any local and systemic reaction to the treatment, as well as other signs of illness and/or behavioral changes in order to obtain tolerance and toxicological information. Body weight was determined twice monthly from the beginning to the end of follow-up. Mice were placed in metabolic cages to collect 24 h urine specimens before the onset of treatment and monthly thereafter. Blood was obtained from the tail vein at monthly intervals.

[5] = test system: Balb/c male mice, CAIA model; format: in vivo, mouse
Text: Collagen-antibody induced arthritis (CAIA) is a simple mouse model of human rheumatoid arthritis (RA) induced by the systemic administration of a cocktail of monoclonal antibodies directed against conserved auto-antigenic collagen type II epitopes, followed by a single injection of lipopolysaccharide (LPS). CAIA is a useful model to study the effector inflammatory phase of arthritis without involving the priming phase of the immune response. The murine CAIA model shares several clinical, immunological and pathological features with RA. Therefore, this model is useful to study the pathogenic mechanisms involved in RA disease as well as for testing new therapies.
Balb/c male mice aged 7-8 weeks were supplied by Envigo. The animals were acclimated during 12 days. The animals were maintained in an environmentally controlled room with ventilation, temperature (22±2° C.), relative humidity (35-65%), and cycle light/dark (12 h/12 h). The animals were housed in groups of 3-5 animals/cage. The maintenance diet was supplied by Harlan Interfauna Ibérica, S. L. (“2014 Harlan Teklad Global Diets”) and they were feed diet and water ad libitum.
Plasmatic C4BP(β−) was supplied at a concentration of 6.2 mg/ml. C4BP(β−) solutions were prepared to the desired concentration 0.33 mg/ml (for 50 μg doses) by dilution with Dulbecco's phosphate-buffered saline (DPBS) of C4BP(β−) 6.2 mg/ml stock solution.
Two reference compounds were used: dexamethasone (Sigma, Ref. D1756) and Enbrel® (etanercept) (Pfizer, Ref. 655950).
Reference compound dexamethasone was dissolved in vehicle (0.1% Tween-80+99% carboxymethyl cellulose (CMC) (0.5% w/v) in water at a concentration of 0.1 mg/ml.
Enbrel® was prepared at 6 mg/ml in DPBS by dilution of 50 mg/mL stock solution.
Experimental Procedure Day 0: Arthritis Induction
On day 0, animals for experimental group C4BPd3 were randomly selected (n=8) and identified using tail code numbers and weighted.
Each mouse was sensitized by the administration of 2 mg anti-type II collagen antibodies cocktail (ArthritoMAB™ cocktail solution, 0.2 mL, i.v., day 0) in the caudal vein.
Day 3: LPS Synchronization
Animals were intraperitoneally administered with 0.1 mL of LPS solution (0.7 mg/ml, 70 μg/animal).
50 μg of C4BP(β−) were administered subcutaneously at day 3 to treatment group C4BPd3.
50 μg of C4BP(β−) were administered subcutaneously at day 5 to treatment group C4BPd3.
Day 5: Animal Distribution
On day 5 after sensitization, the rest of the animals developing clinical signs of arthritis (n=18) were evaluated and distributed in base of CAIA+incidence. Animals were homogeneously randomized (arthritis score) into the CAIA control group, dexamethasone (1 mg/kg at days 5-11, p.o.) and Enbrel®-treated groups (30 mg/kg at days 5-11, s.c.) (n=6). Animals were identified using tail code numbers and weighted.
Group 2 was not included in the distribution because of the previous test item administration.
The arthritis score was determined using the criteria of Table 9.
Treatment: • C4BPd3 group: 50 μg of C4BP(β−) were subcutaneously injected to animals on days 3 and 5. Volume: 0.150 mL. • Reference compound treatments and CAIA control groups (days 5-11): • Enbrel®: 30 mg/kg of Enbrel® was subcutaneously administered to Enbrel group from days 5 to 11. Volume: 5 mL/kg. • Dexamethasone: 1 mg/kg dexamethasone was orally administered to dexamethasone group from days 5 to 11. Volume: 10 mL/kg. • CAIA control group: 0.150 mL of DPBS was subcutaneously administered from days 5 to 11. Arthritis Monitoring:
Body weights were registered daily from days 0-12 in C4BPd3 and from days 5-12 in CAIA control, dexamethasone and Enbrel® groups. Arthritis scores were determined by the same observer in order to avoid observer bias.
The study was finished at day 12.
Animals were anesthetized with isoflurane. Ankles and wrists thickness were measured using a dial thickness gauge. Serum samples were collected and stored at −20° C. […]

[6] = test system: human monocyte-derived DCs; assay: Immunomodulatory activity over human monocyte-derived DCs: CD83/CD86 surface expression by flow cytometry after LPS maturation; format: cell-based; details: FIG. 4
Experimental: In Vitro Functional Assessment of the Immunomodulatory Activity of Full-Length C4BP(β−) and C4BP(β−) Variants Over DCs
The inventors used for the in vitro study both C4BP(β+) (WT) and recombinant C4BP(β−) isoforms, and the above-referred mutants or variants: Mutant 1 and Mutant 2. C4BP(β+) isoforms refer to the major C4BP α7β1 plus the minor C4BP α6β1 isoforms (both in complex with ProS) purified from pooled human plasma.
RPMI 1640 was supplemented with 100 μg/ml of streptomycin, 100 IU/ml of penicillin, 2 mM L-glutamine (all from Invitrogen, Carlsbad, CA) and 10% heat-inactivated fetal bovine serum (Linus, Cultek, Spain) (complete medium), unless otherwise stated.
Peripheral blood mononuclear cells (PBMCs) were obtained from buffy coat preparations collected from healthy donors from the Blood and Tissue Bank (Barcelona, Spain) after Ficoll-Paque™ density centrifugation (GE Healthcare Bio-Sciences AB; Uppsala, Sweden). For surface phenotype determination, monocytes were plated at 1×10^6 cells/ml in 60 mm culture plates (Corning, Spain), in RPMI 1640 medium without serum, and allowed to adhere for 2 h at 37° C. in 5% CO2. The non-adherent cells were removed by washing in PBS.
Monocyte-derived DCs were generated supplementing the monocyte cultures with complete RPMI 1640 medium plus GM-CSF (800 UI/ml) and IL-4 (500 UI/ml) (both from Gentaur, Kampenhout, Belgium) at day 0 and day 3 of culture. For DC maturation, at day 5 iDCs were further stimulated for 48 h with 5 μg/ml LPS (Escherichia coli 055.B5, Sigma L2880, Copenhagen, Denmark).
Staining using the fluorescent dye 7-amino-actinomycin D (7-AAD) (BD Pharmigen) and flow cytometry analysis was employed to assess the viability status of C4BP-treated and untreated DCs.
Cell surface phenotypes were analyzed by flow cytometry using the following mAbs: FITC-conjugated anti-CD83 (HB15a) and PE-conjugated anti-CD86 (HA5.2B7) (all from Beckman-Coulter). The respective isotype controls FITC-conjugated anti-IgG2b (H2) and PE-conjugated anti-IgG2b (H2), were from the same commercial sources. After washing with PBS, cells were subsequently stained with 3 μl mAb/10^5 cells in 100 μl of FACS buffer (PBS containing 1% BSA and 0.1% sodium azide) for 20 min at room temperature. To exclude dead cells and debris, DCs were gated according to forward scatter (FSC) and side scatter (SSC) parameters. Stained cells were analyzed using a FACSCalibur (Becton Dickinson, Franklin Lakes, NJ) equipped with CellQuestPro software (Becton Dickinson).
In Vitro Functional Assessment of C4BP(β−) Immunomodulatory Activity Over DCs
The inventors used for the in vitro study both C4BP(+) and C4BP(β−) isoforms. C4BP(3+) isoforms refer to the major C4BP α7β1 plus the minor C4BP α6β1 isoforms (both in complex with ProS) purified from pooled human plasma, as previously described (Dahlbäck B. 1983. Biochem J., 209:847-56).

Molecule | histological lesions [1] | serum anti-DNA antibodies [1] | development of proteinuria [2] | survival [3] | toxicity and behavioral changes [4] | protection lasting until day after the arthritis induction ([5]; 50 μg sc at days 3 and 5) | inhibition of arthritis score vs. CAIA controls AUC ([5]; C4BP(β−) 50 μg sc days 3 and 5, dexamethasone 1 mg/kg po days 5-11) | ankle thickness ([5]; day 12, C4BP(β−) 50 μg sc d3 and d5, dexamethasone 1 mg/kg po d5-11, Enbrel 30 mg/kg sc d5-11) | wrist thickness vs. CAIA control ([5]; day 12, regimens as Table 8) | body weight vs CAIA control group ([5]; mouse, in vivo) | arthritis scores / progression of arthritis ([5]; regimens as Table 8, vs CAIA control group) | semi-mature, anti-inflammatory phenotype conferred to LPS-matured MoDCs (immunomodulatory activity) ([6]; MoDCs pre-incubated with 5 μg/ml protein, LPS challenge) | CD83 and CD86 surface marker expression ([6]; human MoDCs, 5 μg/ml C4BP isoform, LPS 5 μg/ml)
O=P1(N(CCCl)CCCl)NCCCO1 (centres unmarked) [CYP, Cyclophosphamide, reference compound] | arrested and reversed almost all histological lesions | appropriately controlled | prevented the development of proteinuria | survived throughout the period of observation; also recorded: increased survival | neither toxicity nor behavioral changes were observed | – | – | – | – | – | – | – | –
B1 | – | – | – | – | neither toxicity nor behavioral changes were observed | ≥ 12 days | 47% | 2.74±0.08 mm | No changes | No remarkable differences | significantly ameliorated the progression of arthritis | able to confer an analogous semi-mature, anti-inflammatory phenotype | restrain similarly CD83 and CD86 surface marker expression
